The results in this text go back to patent US20200316195A1 (OSSIANIX, published 2020).

Assay [1] concerns the target T1, recombinant human transferrin receptor 1 (rhTfR-1) (human, UniProt P02786 89-760).
T1 construct: extracellular domain; also called human TfR-1; human TfR1
Description: ELISA on plate-coated hTfR1 (Example 15, as in Example 1D) [panel hTfR1]. The method, then:
(§1) The binding specificity of H01-Fc and F02-Fc for hTfR-1 and hTfR-2 were determined by an ELISA as described in Example 1D. Anti-TfR-2 was used as a positive control for TfR-2 binding. […] Both H01-Fc […] F02 Fc bound hTfR-1 with high specificity (˜100 nM) and neither bound hTfR-2 (FIG. 18).
A general note: An ELISA detects its analyte on a solid surface through an enzyme-linked reagent.

Assay [2] addresses T2, human transferrin receptor 2 (hTfR-2) (human, UniProt Q9UP52 105-801, limits assumed).
T2 construct: also called human TfR-2
T2 sequence (looked up): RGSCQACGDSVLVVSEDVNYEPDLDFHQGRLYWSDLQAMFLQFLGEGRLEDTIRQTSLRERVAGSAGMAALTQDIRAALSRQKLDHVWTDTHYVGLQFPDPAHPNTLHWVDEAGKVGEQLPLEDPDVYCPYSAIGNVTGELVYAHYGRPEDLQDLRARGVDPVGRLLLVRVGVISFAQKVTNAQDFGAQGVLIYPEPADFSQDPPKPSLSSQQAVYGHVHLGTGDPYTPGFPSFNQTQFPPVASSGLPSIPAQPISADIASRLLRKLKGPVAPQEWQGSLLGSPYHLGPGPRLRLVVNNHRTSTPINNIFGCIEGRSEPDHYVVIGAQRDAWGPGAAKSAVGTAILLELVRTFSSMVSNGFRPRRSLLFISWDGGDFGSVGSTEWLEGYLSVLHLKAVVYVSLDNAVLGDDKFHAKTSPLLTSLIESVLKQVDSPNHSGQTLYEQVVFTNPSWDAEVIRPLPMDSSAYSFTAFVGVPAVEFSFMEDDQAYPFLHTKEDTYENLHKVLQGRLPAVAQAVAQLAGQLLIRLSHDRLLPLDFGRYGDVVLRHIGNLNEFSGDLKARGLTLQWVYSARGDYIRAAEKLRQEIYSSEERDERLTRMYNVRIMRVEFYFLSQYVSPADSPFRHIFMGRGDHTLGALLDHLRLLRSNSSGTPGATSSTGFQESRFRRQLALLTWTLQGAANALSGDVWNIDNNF
Description: ELISA on plate-coated hTfR2 (Example 15, as in Example 1D) [panel hTfR2]. On the procedure:
as §1

For assay [3], the target named is T3, recombinant mouse transferrin receptor 1 (rmTfR-1) (mouse, UniProt Q62351 89-763).
T3 construct: extracellular domain; also called mouse TfR-1
T3 sequence (Q62351 89-763): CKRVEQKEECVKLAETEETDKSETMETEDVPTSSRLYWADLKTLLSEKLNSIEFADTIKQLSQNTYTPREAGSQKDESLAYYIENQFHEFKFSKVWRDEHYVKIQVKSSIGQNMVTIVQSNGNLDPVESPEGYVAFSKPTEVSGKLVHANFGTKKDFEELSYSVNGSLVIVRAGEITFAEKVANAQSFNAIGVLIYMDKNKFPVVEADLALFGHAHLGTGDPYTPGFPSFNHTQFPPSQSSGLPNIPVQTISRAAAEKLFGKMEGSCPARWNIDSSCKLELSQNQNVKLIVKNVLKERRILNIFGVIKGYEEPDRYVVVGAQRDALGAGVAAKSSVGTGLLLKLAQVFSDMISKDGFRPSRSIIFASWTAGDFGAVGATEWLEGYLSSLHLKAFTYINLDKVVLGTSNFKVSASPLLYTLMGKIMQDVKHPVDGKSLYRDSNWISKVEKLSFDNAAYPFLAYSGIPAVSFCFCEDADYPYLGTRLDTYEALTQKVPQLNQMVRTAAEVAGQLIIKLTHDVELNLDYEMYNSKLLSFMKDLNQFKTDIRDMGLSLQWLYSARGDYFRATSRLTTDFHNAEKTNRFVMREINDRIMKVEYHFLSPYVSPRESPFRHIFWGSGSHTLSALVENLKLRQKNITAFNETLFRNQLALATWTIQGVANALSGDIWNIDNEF
Description: ELISA, monomer bound at pH 7 to rmTfR-1, washed 3 x 3 min at pH 7.2 or pH 5.2, HRP anti-FLAG [panel VNAR H11 on mTfR-1]. On the procedure:
(§2) VNARs were purified from 500 mL bacterial cultures which were grown in auto-induction medium (Novagen) and periplasmic fractions were extracted by osmotic shock by resuspending bacteria in TES buffer (50 mM Tris, 1 mM EDTA, 20% Sucrose) mixed with an equal volume of TES diluted 1:5 in water. After 30 minutes on ice, lysates were clarified by centrifugation and the salt concentrations were adjusted to 500 mM NaCl and 10 mM imidazole in 1×PBS. Periplasmic extracts were then purified with Nickel-Sepharose resin (Qiagen), washed in 1×PBS, 10 mM imidazole, 500 mM NaCl, and then eluted in 1×PBS, 500 mM imidazole, 500 mM NaCl. The purified protein was then buffer-exchanged against PBS and concentrated by centrifugation with Vivaspin 20 filters (Sartorius, MWCO 5000). Endotoxin was removed using VivaPure Q mini column (Sartorius) and the protein was sterile filtered (0.22 μm). After estimating the protein concentration using Bradford reagent (Pierce), the purified protein was stored in frozen aliquots. EC50 binding curves of purified VNAR monomers to immobilized to human or mouse TfR-1 ([…]) were determined by standard protein ELISA an HRP-conjugate anti-FLAG M2 antibody. For pH binding sensitivity testing, purified monomer was bound at pH7 and then washed 3 times for 3 min at either pH5.2 or pH7.2.

The target in assay [4] is T1, recombinant human transferrin receptor …. Description: ELISA, purified VNAR monomer on plate-adsorbed rhTfR-1, HRP anti-FLAG [panel HUMAN TfR BINDING]. The method, then:
as §2

For assay [5], the target named is T3, recombinant mouse transferrin receptor …. As to the kind of experiment: competitive phage ELISA.
Assay [6] shares this target. As to the kind of experiment: ELISA, purified VNAR monomer on plate-adsorbed rmTfR-1, HRP anti-FLAG [panel MOUSE TfR BINDING]. The method, then: as §2
Assay [7] has as its target T1, recombinant human transferrin receptor …. Description: competitive phage ELISA.
Assay [8] shares this target. As to the kind of experiment: ELISA, monomer bound at pH 7 to rhTfR-1, washed 3 x 3 min at pH 7.2 or pH 5.2, HRP anti-FLAG [panel VNAR C11 on hTfR-1]. The method, then: as §2
In assay [9] the target is T3, recombinant mouse transferrin receptor …. Description: ELISA, monomer bound at pH 7 to rmTfR-1, washed 3 x 3 min at pH 7.2 or pH 5.2, HRP anti-FLAG [panel VNAR C11 on mTfR-1]. On the procedure: as §2
For assay [10] the target is unchanged. Description: ELISA, monomer bound at pH 7 to rmTfR-1, washed 3 x 3 min at pH 7.2 or pH 5.2, HRP anti-FLAG [panel VNAR G02 on mTfR-1]. On the procedure: as §2
The target of assay [11] is T1, recombinant human transferrin receptor …. Description: ELISA, monomer bound at pH 7 to rhTfR-1, washed 3 x 3 min at pH 7.2 or pH 5.2, HRP anti-FLAG [panel VNAR G02 on hTfR-1]. On the procedure: as §2
Assay [12] deals with T3, recombinant mouse transferrin receptor …. Description: EC50 on recombinant target, presumably ELISA as in Example 8B. The method, then: (§3) To test whether the bispecific molecules retained binding to both transferrin receptor and BACE1, the purified proteins were titrated against either hTfR, mTfR, or BACE1 adsorbed to the solid phase of an ELISA plate. Binding was measured with an […] anti-human-Fc antibody (Example 8; Table 3).
(§4) To test whether the bispecific molecules retained binding to both transferrin receptor and BACE1, the purified proteins were titrated against hTfR, mTfR, or BACE1 adsorbed to the solid phase of an ELISA plate. Binding was measured with an HRP-labelled anti-human-Fc antibody.

Assay [13] shares this target. Description: ELISA; target adsorbed to plate; HRP anti-human-Fc detection. On the procedure:
as §3, §4

T1 sequence (P02786 89-760): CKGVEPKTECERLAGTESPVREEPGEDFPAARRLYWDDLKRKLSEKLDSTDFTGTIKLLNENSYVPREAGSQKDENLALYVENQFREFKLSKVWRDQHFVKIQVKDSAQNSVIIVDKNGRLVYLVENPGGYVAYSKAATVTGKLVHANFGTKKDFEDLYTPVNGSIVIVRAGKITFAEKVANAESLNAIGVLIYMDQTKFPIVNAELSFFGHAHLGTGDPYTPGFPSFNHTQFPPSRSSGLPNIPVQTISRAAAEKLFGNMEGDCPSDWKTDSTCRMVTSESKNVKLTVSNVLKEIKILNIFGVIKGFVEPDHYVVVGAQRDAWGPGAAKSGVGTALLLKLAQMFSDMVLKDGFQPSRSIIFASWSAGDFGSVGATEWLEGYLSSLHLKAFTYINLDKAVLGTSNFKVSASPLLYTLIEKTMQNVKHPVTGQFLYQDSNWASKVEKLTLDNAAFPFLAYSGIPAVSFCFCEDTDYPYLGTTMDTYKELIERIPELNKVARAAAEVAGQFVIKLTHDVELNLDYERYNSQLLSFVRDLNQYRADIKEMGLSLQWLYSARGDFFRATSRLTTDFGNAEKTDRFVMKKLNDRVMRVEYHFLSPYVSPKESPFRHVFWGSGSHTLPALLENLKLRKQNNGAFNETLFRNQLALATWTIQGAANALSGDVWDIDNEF

B1: H01-Fc (bivalent VNAR-Fc fusion protein) (Fc fusion)
chain: ARVDQTPQTITKETGESLTINCVLRDSNCALSSTYWYRKKSGSTKEESISKGGRYVETVNSGSKSFSLRINDLTVEDSGTYRCNVWHDLVWSVCTTDVYGGGTVVTVNAASGAGGGGS
notes: VNAR fused to the N-terminus of the Fc; bivalent; not shown: human IgG1-Fc region (CH2 and CH3 domains) from a modified pFUSE-hIgG1e3-Fc2 plasmid
For orientation: EC50 (read off the curve) means the concentration giving half of the maximal effect. B1: the “EC50 (read off the curve)” value in assay [1] was roughly 8 nM. For the same molecule, the binding result in assay [2] is reported as “no binding (tested: 10^-6 M)”.

B2: VNAR H11 (VNAR)
VNAR: ARVDQTPQTITKETGESLTINCVLRDNDCALSSTYWYRKKSGSTNEERMTKGGRYVETVNSGSKSFSLRINDLTVEDSGTYRCNVYGLVDCASGMNWIDVYGGGTVVTVNA
notes: Shark VNAR single domain; not shown: FLAG tag of the pOsD2 vector
Regarding B2, the binding result in assay [3] and in assay [4] was “binds” in each case.

B3: VNAR H01 (VNAR)
VNAR: ARVDQTPQTITKETGESLTINCVLRDSNCALSSTYWYRKKSGSTKEESISKGGRYVETVNSGSKSFSLRINDLTVEDSGTYRCNVWHDLVWSVCTTDVYGGGTVVTVNA
notes: as for B2
Consider B3, for which the binding result in [5] is “binds”.

B4: VNAR A03 (VNAR)
VNAR: ARVDQTPQTITKETGESLTINCVLRDRDCALSSTHWYRKKSGSTNEESIPKGGRYVETVNSGSKSFSLRINDLTVEDSGTYRCNVYSLTANWWCDVYGGGTVVTVNA
notes: as for B2
On to B4, for which the binding result in assay [4] and in [6] was “binds” in each case.

B5: VNAR C02 (VNAR)
VNAR: ARVDQTPQTITKETGESLTINCVLRDNDCALSSTYWYRKKSGSTNEESISKGGRYVETVNSGSKSFSLRINDLTVEDSGTYRCNVYQPPSTESLYWCDVYGGGTAVTVNA
notes: as for B2
As to B5, the binding result in assay [5] and in assay [7] was “binds” each time.

B6: VNAR C11 (VNAR)
VNAR: ARVDQTPQTITKETGESLTINCVLRDKDCALSSTSWYRKKSGSTNEESISKGGRYVETVNSGSKSFSLRINDLTVEDSGTYRCNVYARPRPDNLNWCDVYGGGTAVTVNA
notes: as for B2
Consider B6, for which the binding result in assay [8] and in assay [9] was “binds” in each case.

B7: VNAR A07 (VNAR)
VNAR: ARVDQTPQTITKEEGESLTINCVLRDSSSALASTSWYRKKSGSTREETISKGGRYVETVNSGSKSFSLRINDLTVEDSGTYRCNVYELVEDTSAYEIGVDVYGDGTAVTVNA
notes: Shark VNAR single domain; also called clone A07; not shown: FLAG tag of the pOsD2 vector
Regarding B7, the binding result in assay [5] and in [7] was “binds” in each case.

B8: VNAR G02 (VNAR)
VNAR: ARVDQTPQTITKETGESLTINCVLRDRDCALSSTHWYRKKSGSTNEESISKGGRYVETVDSGSKSFSLRINDLTVEDSGTYRCNVYQSPVGRRWWCDVYGGGTVVTVNA
notes: as for B2
As for B8, the binding result in [10] and in assay [11] was “binds” throughout.

B9: F02-hFc (bivalent F02 VNAR-hFc fusion protein) (Fc fusion)
chain: ARVDQTPQTITKETGESLTINCVLRDNDCTLSSTHWYRKKSGSTNEERISKGGRYVETVNSGSKSFSLRINDLTVEDSGTYRCNVYAMTRNWWCDVYGGGTVVTVNAASGAGGGGS
notes: VNAR fused to the N-terminus of the Fc; bivalent, about 75 kDa; also called F02-Fc; F02 Fc; not shown: human IgG1-Fc region (CH2 and CH3 domains) from a modified pFUSE-hIgG1e3-Fc2 plasmid
As a reminder, the EC50 is the midpoint of the concentration-response curve. Take B9: in assay [1], the “EC50 (read off the curve)” value is roughly 20 nM. Also, in assay [2], the binding result is on record as “no binding (tested: 10^-6 M)”. Moreover, the EC50 in [12] came out at 34.2 nM; in [13], 34.3 nM.
